Experimental data from patent US20130216530A1, “Methods for optimizing biological response modifier therapy using therapeutic drug monitoring of immunosuppressants” (Exagen Diagnostics, Inc., priority 2012, published 2013).

Key:
Type in all cases: in vivo, human
[1] = Antibodies to infliximab (ATIs) in RA patients by enzyme immunoassay, cutoff 0.9 U/L
Protocol: (§1) Adult RA patients receiving weekly MTX with infliximab for more than three months were enrolled in a cross sectional study. Blood was collected at trough before the infusion of infliximab. Red blood cell (RBC) MTXPGs were measured using liquid chromatography while circulating levels of infliximab were measured using a cell based assay. ATIs were measured using enzyme immunoassays. Statistical analysis consisted of regression analyses and Wilcoxon tests.
(§2) The study was cross sectional study in adult RA patients at three study sites (Brigham and Women's, Boston, Mass.; The Center for Rheumatology, Albany, N.Y.; and Altoona Center for Clinical Research, Altoona Pa.). All RA patients (according to the 2010 ACR criteria for RA)^8 enrolled had received a stable dose of MTX (for at least 4 months) in combination with infliximab for at least 3 months. Clinical parameters and demographic data were collected at the time of a single study visit. The study was approved by an independent ethic committee and informed consent was collected from all patients. Blood was drawn in EDTA containing tube and one SST tube at the time of the study visit. The blood was drawn just prior to the infliximab infusion (trough) and shipped overnight using refrigerated transportation kits. Disease activity was estimated using the clinical disease activity index (CDAI). Upon receipt of blood specimen, erythrocytes and serum were isolated and stored frozen at −80° C. RBC MTXPG3 were measured using a liquid chromatography developed and validated in our laboratory^9. Quantification limit was 5 nmol/L RBCs. Circulating levels of infliximab in serum were measured by Biomonitor (Copenhagen, DK) using a cell based assay consisting of erythroleukemic K562 cells transfected with a NFKB regulated firefly luciferase reporter-gene construct^10. Antibodies to infliximab (ATIs) were measured using a proprietary enzyme immunoassay technique (Biomonitor, Copenhagen, Denmark). The cutoff for positive ATI was 0.9 U/L. Anti-citrullinated peptide auto-antibodies levels (Anti-MCV) were measured using ELISA (Orgentec Diagnostika, Mainz, Germany). Statistical analysis consists of multivariate logistic/linear regression and Wilcoxon tests as appropriate.

[2] = Circulating trough infliximab levels in serum of RA patients on MTX plus infliximab (K562 NFKB-luciferase cell based assay)
Protocol: as §1
as §2, with “Upon receipt of blood specimen, erythrocytes and serum were isolated and stored frozen at −80° C.” left out, “Statistical analysis consists of multivariate logistic/linear regression and Wilcoxon tests as appropriate.” left out

[3] = RBC MTXPG3 levels in RA patients measured by liquid chromatography
Protocol: as §1
as §2, with “Upon receipt of blood specimen, erythrocytes and serum were isolated and stored frozen at −80° C.” left out, “Statistical analysis consists of multivariate logistic/linear regression and Wilcoxon tests as appropriate.” left out

| Compound | patients with ATIs detected ([1]; 11 of 61 patients, ATI>0.9 U/L) | patients testing positive for ATI ([1]; 12 patients with RBC MTXPG3 above 50 nmol/L) | fold lower likelihood of having ATI (odds ratio) ([1]; RBC MTXPG3 levels above 25 nmol/L, logistic regression, CI95%: 1.1-20.8) | number of patients with ATI ([1]; of 4 patients with MTXPG3<5 nmol/L) | patients presenting with ATI ([1]; patients with RBC MTXPG3 below 5 nmol/L (3 out of 4)) | median infliximab levels, patients without ATI ([2]; ATI negative patients, trough) | median infliximab levels, patients with ATIs ([2]; ATI positive patients, trough) | median trough infliximab levels ([2]; all 61 RA patients, MTX with infliximab, serum at trough before infusion) | median RBC MTXPG3, patients without ATI ([3]; ATI negative patients) | median RBC MTXPG3, patients having ATIs ([3]; ATI positive patients) | median RBC MTXPG3 levels ([3]; all 61 RA patients on weekly MTX, red blood cells) |
| --- | --- | --- | --- | --- | --- | --- | --- | --- | --- | --- | --- |
| infliximab | 18% | None and none | 4.7 fold | 3 | 75% | 5.0 µg/mL | < 0.5 µg/mL | 3.3 µg/mL | – | – | – |
| CN(Cc1cnc2nc(N)nc(N)c2n1)c1ccc(C(=O)N[C@@H](CCC(=O)N[C@@H](CCC(=O)N[C@@H](CCC(=O)O)C(=O)O)C(=O)O)C(=O)O)cc1 [MTXPG3] | – | – | – | – | – | – | – | – | 30 nmol/L | 22 nmol/L | 28 nmol/L |
